Measurements reported in the DeepSol protein solubility set.

Assay: soluble on expression in E. coli; label from the status in PepcDB or PDB records

Sequence | soluble on expression in E. coli
MGSDKIHHHHHHMASFIASDQDVKNFLTAPSMNDQEGIGFAYATDEAVLKALIPAPLKLMAPVVCGYVVHMGKPTFSAPYLEESLFALVSYKDKMMGAYPINLLLHGPGAESGVIAGREGAGIPKKLADDIELRRNDNSATATVERHGKTLLNVSWTAGELNDPSIMKQFAGQLALGKEAEMNSFFYKYDIDQHEDGTNHFSNVQLVATQLRSLADQVEPGNLSIQLESTDDDPFGELKVLKPLGAAWFHFDTSVMFNTLKLDEVDAATTMPKLLTGRYDRSFFNPKAATYII | not soluble
MEEDNQQDQNNQYVIYHPFFSEGCHFYFIISCTNSFIRVALKIGLIGDSQIGKTSLMVKYVEGSFDEDYIQTLGVNFMDKKIQIRNTTITFSIWDLGGQKEFINMLPLVSNDAVAILFMFDLTRKSTLNSIKEWYRQVRGFNKTAIPFLVGTKYDQFIDLSFQDQIEITQQAKKFGSAMKAPVIFCSTSHSINVQKIFKIILSKAFDLKLNLDEIVNVGEPILIYK | not soluble
FQGNPCECPRALHRVCGSDGNTYSNPCMLTCAKHEGNPDLVQVHEGPCDEHDHDF | soluble
MVFKSKKDKFSEMLMNVSENLKEGAQFFVEYKIKNASDLKEFSMRMKEYESKGDSFIHEIIMELNKAFITPIEREDILQLAMSMDDVLDGLDHSAGLFEMYSITEADEYMIKFVEAINQCAIEIANSVELMSNKKLVDIRTNAIKIKDYESQCDDIRRHAIKNLFSREKDPIKIIQFKEIYEELEEVADSCQSVANVLETIIMKNALEHHHHHH | soluble
MTEKTTVKTLKDVVVRFCGDSGDGMQLTGTIFSDLSAVFGNTISTFPDYPAEIRAPQGTLGGVSGFQVHIGTDLVRTPGDLADVLVAMNPAALKVNRTHVRRDSIIIIDSDSFMASDLEKAEIASEDFMTELGLTTQELFTVPISSMVKKSTAEFGLDVKAALRCKNMFALGLVCWLFDRPTQHAIDYLNRKFGKKEAILNANIKALADGFNYGHNTHATATTYRIEGRKQTPGVYMDISGNKATAYGLVAAAEHANLNLFLGSYPITPATDILHELAKLKSLGVKTVQAEDEIAGICTAIGVSFAGDLAVTTTSGPGLALKSEALGLTVMAELPLVLVDVQRGGPSTGLPTKSEQTDLLQALFGRNGESPIPVIAATTPSDCFDSAFWACKIALEHMTPVILLTDAFIANGSSAWRIPDPQSYPDIRPPYVDQYKGEAKWRPYFRNEETHVRYWAIPGQEGFQHRLGGLEKDYVTGAISTNPENHAKMVATREAKVQAIAQDIPDLEVHGDKDDAELLIIGWGGTYGHLYETMERMRNAGKKVALAHFRFINPLPKNTAEVLQRYPKAVVAEQNLGQFALYLRGEVPGFHPLQFNRVTGQPLVMSEMVEVFTQMMEEK | not soluble
MEGVQEVEIDAPLSGWHPAEGEDASFSQSINYPASSVNMADDQNISAQIRGKIKNYAAAGKVQQGRLVVNGASMPQRIESDGSFARPYIFTEGSNSVQVISPDGQSRQKMQFYSTPGTGTIRARLRLVLSWDTDNTDLDLHVVTPDGEHAWYGNTVLKNSGALDMDVTTGYGPEIFAMPAPVHGRYQVYINYYGGRSETELTTAQLTLITDEGSVNEKQETFIVPMRNAGELTLVKSFDWLEHHHHHH | soluble
MNNELPDDIELLKAMLRKQQSRLRQYACQVAGYEQEIERLKAQLDRLRRMLFGQSSEKKRHKLENQIRQAEKRLSELENRLNTARNLLEDASSVTDSPDTSPPSENPIASKPESPGRKSSRKPLPAELPRETHRLLPAETSCPACGGVLKEMGETISEQLDIINTAFKVIETIRPKLACSRCDVIGTTSS | not soluble
MEKGYRLLERIELGEPKNCYEKVVSHKHLIESIHLHLADLLNTHSGNAMIDSEYGLPDFNDVLSNNTNLVRHIQKNITATIERFEPRLLNVEVHYREDHHNPLQLGFGIRGEVSHNGGKVPMSIDVYMGTD | not soluble
NSNNKRAPYWTNTEKMEKRLHAVPAANTVKFRCPAGGNPMPTMRWLKNGKEFKQEHRIGGYKVRNQHWSLIMESVVPSDKGNYTCVVENEYGSINHTYHLDVVERSPHRPILQAGLPANASTVVGGDVEFVCKVYSDAQPHIQWIKHVEKNGSKYGPDGLPYLKVLKAAGVNTTDKEIEVLYIRNVTFEDAGEYTCLAGNSIGISFHSAWLTVLPAPGRE | soluble
